From patent US6858210B1, “Therapeutic and diagnostic domain 1 β2GPI polypeptides and methods of using same” (La Jolla Pharmaceutical Co., priority 1998, dated 2005)
Like-named read-outs stand apart in the source and are kept apart here.

How the values were obtained:
[1] = test system: human β2GPI-dependent antiphospholipid antibody; experiment: Micropanning of mutant domain 1 phage, patient antibodies; type: binding; conditions: for Micropan score: Table 7B
[2] = test system: rabbit anti-human β2GPI; experiment: Micropanning of mutant domain 1 phage, rabbit antibody; type: binding; design: key: 0 (<10 colonies) to 4+ (confluent) semiquantitative colony score; conditions: for Micropan score: Table 7B; for μpan score: Table 7A
Experimental: Error prone PCR was carried out as follows. Domain 1 of human β2GPI was amplified by PCR under conditions that enhance the error rate of Taq polymerase. The primers were such that amino acids 1-64 were amplified. A Sfc 1 restriction site was incorporated as part of amino acid 1. At the 3′ end a Sal 1 restriction site was incorporated after amino acid 64. The PCR reaction was done as described by Leung et al. (1989) Technique 1:11, using 0.25 mM MnCl2. The PCR product was digested with Sfc 1 and Sal 1 and cloned into fd-tet-DOG2 that had been digested with Apal 1 and Sal 1. This positions domain 1 at the N-terminus of pill immediately after the pill signal sequence. The ligation reaction was electroporated in E. coli K91. Phage were harvested and titered by standard methods. Resulting phage clones were assayed using a micropanning technique.
Immulon type 2 plates were coated with protein G. Protein G was prepared at 5 μg/mL in 0.1 M NaHCO3 and 100 μL per well was added to the wells of microtitration plates and incubated overnight at 4° C. After discarding excess protein G solution from plates, each well was blocked with 200 μL 2YT for 1 hour at RT with agitation on an oscillating platform. Tris-buffered saline, pH 7.4/0.5% Tween 20 (TBS/Tween), was used with an automatic plate washer to wash the wells 4 times with 200 μL. One hundred μL human β2GPI-dependent antiphospholipid 6626, 6501, 6701, rabbit β2GPI-dependent antiphospholipid, or control normal IgG, diluted to 2.5 μg/mL with 2YT, was added to washed wells. The plate was incubated for 1 hour at room temperature on a rotating platform.
Phage to be tested by micropanning were obtained from the agar plates generated by biopanning. Each clone to be tested was transferred using sterile toothpicks to a separate well of a round-bottom 96-well microtitration plate (Corning, Corning, N.Y.) containing 200 μL 2YT/Tet per well and cultured overnight at 30° C. Following overnight incubation, phage cultures were centrifuged using a microtitration plate holder at 1300×g for 10 minutes at room temperature. Supernatants constituted the source of “neat” phage. The neat phage were diluted 1: 100-1:1000 and 100 μL was added to the plate containing protein G-bound β2GPI-dependent antiphospholipid antibody-6501 and normal IgG prepared as described above. The incubation of dilute phage with aPL antibody or control IgG was carried out for 2 hours at room temperature on a flat rotator. After 9 washes with TBS/Tween in an automated plate washer, the IgG-bound phage was eluted with 20 μL of 0.2 N HCl-glycine/0.1% BSA, pH 2.2. The elution incubation continued for 10 minutes at RT, during which time a new Corning microtitration plate was prepared containing 20 μL of freshly starved E. coli per well and kept chilled. One hundred forty μL of 29 mM Tris was added to the plate containing the phage eluates in order to neutralize the pH, following which 20 μL of phage suspension was transferred from each well to the corresponding well in the plate containing starved E. coli. After a 10 minute incubation at 37° C., 200 μL 2YT was added and incubation carried out an additional 30 minutes at 37° C. Using multichannel pipettors, 8 μL from each well was spotted on a large 2YT/Tet agar plate while retaining the original 8×12 well pattern and orientation from the last microtitration plate. After allowing the spots to dry for 30 minutes, the plate was incubated overnight at 30° C. The following day, colonies were semiquantitatively scored from 0 to 4+, with 0 symbolizing <10 colonies; 1+=10-30; 2+=30 colonies to 70% confluent; 3+=70%-90% confluent; 4+=confluent.
For Table 7A, the rabbit anti-human β2GPI was performed on two separate occasions. Mutations are listed with the original amino acid, the position number, and the identity of the amino acid at that position in the mutant. […] Non-mutated domain 1 have a score of 3+, while domain 5 phage gave a score of −. Silent mutations are not shown. […]

[3] = test system: affinity purified β2GPI-dependent antiphospholipid antibody; experiment: Competitive inhibition ELISA: recombinant β2GPI proteins compete for antibody binding to coated full length recombinant β2GPI; design: species or system human; conditions: for IC50: read-out: 50% (concentration to give 50% inhibition)
Experimental: Microtiter plates (MaxiSorp™, Nalge Nunc International, Denmark) were coated with 50 μl of full length recombinant β2GPI at 10 μg/ml in 0.1 M bicarbonate, pH 9.5, incubated overnight at 4° C., washed three times with 0.15 M PBS, pH 7.2, and blocked for one hour at room temperature with 75 μl of 2% Non-fat Dried Milk (Carnation, 2% NFDM). Test inhibitors were diluted in 2% NFDM and 25 μl of each dilution was added to coated wells. Affinity purified β2GPI-dependent antiphospholipid antibody was diluted in 2% NFDM and 25 μl, of a constant concentration, was added to the wells, including a group of wells that had no inhibitor, which acted as the positive controls. The contents of the wells were mixed and the plates were incubated at 37° C. for one hour. The plates were washed three times with PBS, 50 μl of alkaline phosphatase conjugated anti-human IgG, gamma chain specific, (Zymed #62-8422) diluted appropriately in 2% NFDM was added and incubated at 37° C. for one hour. The plates were washed three times with PBS, 50 μl of alkaline phosphatase PPMP chromogenic substrate solution was added and incubated for 30 minutes, at room temperature. The Optical Density, at 550 nm, was determined by reading the plates in a microplate autoreader (Bio-Teck Instruments, model EL3 11). The percent inhibition was determined by dividing the OD550 obtained in the presence of inhibitor by the mean OD550 obtained from the wells without inhibitor and then multiplying by 100 (more particularly, [mean A550 obtained from control wells without inhibitor less A550 of background] minus [A550 obtained in presence of inhibitor less A550 of background] divided by [mean A550 obtained from control wells without inhibitor less A550 of background] times 100).
Seven to nine different recombinant β2GPI mutant proteins were used to determine the antigenic specificity of affinity purified β2GPI-dependent antiphospholipid antibody preparations from 13 different patients. Each mutant recombinant β2GPI protein was tested, in a dose dependent fashion, for its ability to inhibit affinity purified β2GPI-dependent antiphospholipid antibody from binding to full length recombinant β2GPI. The following values were also observed for domain 1 only recombinant protein (1 - - - -; see Table 2 for designations): […]

[4] = test system: affinity purified β2GPI-dependent antiphospholipid antibody; experiment: Direct binding ELISA, nickel chelate-coated wells charged with recombinant β2GPI proteins (no cardiolipin); design: species or system human; conditions: O.D. at 550 nm
Experimental: Nickel Chelate-coated microwell plates (NCP 010 00 Xenopore Corp. 374 Midland Ave. Saddle Brook, N.J. USA) were coated with 50 μl of serial dilutions of the various recombinant β2GPI, in PBS, at room temperature for 2 hours. The plates were washed three times with PBS and blocked with 75 μl of a 1% gelatin (Sigma #G-2500) in PBS for one hour room temperature. […] The plates were washed three times with PBS, 50 μl of alkaline phosphatase conjugated anti-immunoglobulin (anti-human IgG, gamma chain specific, Zymed #62-8422) or anti-rabbit IgG (Zymed #62-6122) diluted appropriately in 1% gelatin was added and incubated at 37° C. for one hour. The plates were washed three times with PBS, 50 μl of alkaline phosphatase PPMP chromogenic substrate solution was added and incubated for 30 minutes at room temperature. The optical density, at 550 nm, was determined by reading the plates in a microplate autoreader (Bio-Teck Instruments, model EL311).
Seven to nine different recombinant β2GPI mutant proteins were examined to determine if they could support the direct binding of affinity purified β2GPI-dependent antiphospholipid antibody preparations in the absence of anionic phospholipid. All recombinant mutant β2GPI were assayed with affinity purified β2GPI-dependent antiphospholipid antibody preparations from 11 different patients. Each mutant recombinant β2GPI protein was tested, in a dose dependent fashion and GST-6his was included as a negative control. The recombinant mutant β2GPI proteins were bound to nickel coated microtiter plates via their 6-his tail. All recombinant mutant β2GPI proteins tested bound rabbit anti-β2GPI showing that they were assessable by antibody (FIG. 5).

B1: Dom1: phage displaying wild type (WT) domain 1 (protein)
chain: GRTCPKPDDLPFSTVVPLKTFYEPGEEITYSCKPGYVSRGGMRKFICPLTGLWPINTLKCTPRV
Micropan score ([1]; antibody 6226): 4
Micropan score ([1]; antibody 6501): 4
Micropan score ([1]; antibody 6632): 4
Micropan score ([1]; antibody 6644): 4
Micropan score ([1]; antibody 6701): 4
Micropan score ([1]; antibody 7008): 4
μpan score ([1]; control phage for Table 7A, antibody not stated): 3+ (3+=70%-90% confluent)
Micropan score ([2]; 1st column): 4
Micropan score ([2]; 2nd column): 4
Micropan score ([2]; 3rd column): 4
Micropan score ([2]; 4th column): 4
Micropan score ([2]; 5th column): 4

B2: 3F8: phage clone, domain 1 mutant T50A (protein)
chain: GRTCPKPDDLPFSTVVPLKTFYEPGEEITYSCKPGYVSRGGMRKFICPLAGLWPINTLKCTPRV
Micropan score ([1]; antibody 6226): 2
Micropan score ([1]; antibody 6501): 2
Micropan score ([1]; antibody 6632): 2
Micropan score ([1]; antibody 6644): 3
Micropan score ([1]; antibody 6701): 2
Micropan score ([1]; antibody 7008): 3

B3: D11: phage clone, domain 1 mutant N56D (protein)
chain: GRTCPKPDDLPFSTVVPLKTFYEPGEEITYSCKPGYVSRGGMRKFICPLTGLWPIDTLKCTPRV
μpan score ([2]; first (or only) value): 2
μpan score ([2]; second value (second occasion)): 3

B4: 2B2: phage clone, domain 1 mutant V37E (protein)
chain: GRTCPKPDDLPFSTVVPLKTFYEPGEEITYSCKPGYESRGGMRKFICPLTGLWPINTLKCTPRV
μpan score ([1]; Table 7A, antibody 6501): 3
μpan score ([1]; Table 7A, antibody 6626): 3
μpan score ([1]; Table 7A, antibody 6701): 3
Micropan score ([1]; antibody 6226): 4
Micropan score ([1]; antibody 6501): 4
Micropan score ([1]; antibody 6632): 4
Micropan score ([1]; antibody 6644): 4
Micropan score ([1]; antibody 6701): 4
Micropan score ([1]; antibody 7008): 4
μpan score ([2]; first (or only) value): 3
Micropan score ([2]; 1st column): 4
Micropan score ([2]; 2nd column): 4
Micropan score ([2]; 3rd column): 4
Micropan score ([2]; 4th column): 4

B5: 2A1: phage clone, domain 1 mutant T20S (protein)
chain: GRTCPKPDDLPFSTVVPLKSFYEPGEEITYSCKPGYVSRGGMRKFICPLTGLWPINTLKCTPRV
μpan score ([1]; Table 7A, antibody 6501): 3
μpan score ([1]; Table 7A, antibody 6626): 3
μpan score ([1]; Table 7A, antibody 6701): 3
Micropan score ([1]; antibody 6226): 4
Micropan score ([1]; antibody 6501): 4
Micropan score ([1]; antibody 6632): 4
Micropan score ([1]; antibody 6644): 4
Micropan score ([1]; antibody 6701): 4
Micropan score ([1]; antibody 7008): 4
μpan score ([2]; first (or only) value): 3
Micropan score ([2]; 1st column): 4
Micropan score ([2]; 2nd column): 4
Micropan score ([2]; 3rd column): 4
Micropan score ([2]; 4th column): 4

B6: 12---: recombinant β2GPI deletion mutant with domains 1 and 2 (protein)
chain: GRTCPKPDDLPFSTVVPLKTFYEPGEEITYSCKPGYVSRGGMRKFICPLTGLWPINTLKCTPRVCPFAGILENGAVRYTTFEYPNTISFSCNTGFYLNGADSAKCTEEGKWSPELPVCAPIIGHHHHHH
Max (maximum inhibition observed at concentrations tested) ([3]; Ab 6203): 20%
IC50 ([3]; Ab 6203): > 10 µM
Max (maximum inhibition observed at concentrations tested) ([3]; Ab 6501): 30%
IC50 ([3]; Ab 6501): > 10 µM
Max (maximum inhibition observed at concentrations tested) ([3]; Ab 6626): 50%
IC50 ([3]; Ab 6626): > 10 µM
Max (maximum inhibition observed at concentrations tested) ([3]; Ab 6632): 70%
IC50 ([3]; Ab 6632): 3 µM
Max (maximum inhibition observed at concentrations tested) ([3]; Ab 6644): 45%
IC50 ([3]; Ab 6644): > 10 µM
Max (maximum inhibition observed at concentrations tested) ([3]; Ab 7008): 40%
IC50 ([3]; Ab 7008): > 10 µM
Max (maximum inhibition observed at concentrations tested) ([3]; Ab 7015): 30%
IC50 ([3]; Ab 7015): > 10 µM
Max (maximum inhibition observed at concentrations tested) ([3]; Ab 7101): 20%
IC50 ([3]; Ab 7101): > 10 µM
Max (maximum inhibition observed at concentrations tested) ([3]; Ab 7104): 90%
IC50 ([3]; Ab 7104): 1 µM
Maximum O.D. ([4]; Ab 6203): 0.119
Maximum O.D. ([4]; Ab 6501): 0.028
Maximum O.D. ([4]; Ab 6626): 0.073
Maximum O.D. ([4]; Ab 6632): 0.016
Maximum O.D. ([4]; Ab 7008): 0.008
Maximum O.D. ([4]; Ab 7015): 0.063
